What is called Kd is the equilibrium constant for the complex coming apart.

The values that follow come from patent US20180217132, “MEASUREMENT METHOD AND MEASUREMENT DEVICE” (KYOCERA CORPORATION, published 2018).

In this series the target is Hemoglobin A0 (HbA0) (UniProt P69905;P68871 P69905:2-142,P68871:2-147). As to the kind of experiment: SPR; Biacore T200, HBS-P + 1 mM MgCl2 pH 7.4; method of Kd not explicitly stated. The following applies: tags: none; denatured. On the technique in general: In SPR one partner is held on a chip, and binding of the other changes the refractive index at the surface.
Sequence of Hemoglobin A0 (HbA0) (P69905 2-142, chain 1 of 2): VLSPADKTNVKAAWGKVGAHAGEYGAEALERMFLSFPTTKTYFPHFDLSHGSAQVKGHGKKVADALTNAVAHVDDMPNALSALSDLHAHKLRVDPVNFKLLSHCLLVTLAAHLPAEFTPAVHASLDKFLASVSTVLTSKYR
Sequence of Hemoglobin A0 (HbA0) (P68871 2-147, chain 2 of 2): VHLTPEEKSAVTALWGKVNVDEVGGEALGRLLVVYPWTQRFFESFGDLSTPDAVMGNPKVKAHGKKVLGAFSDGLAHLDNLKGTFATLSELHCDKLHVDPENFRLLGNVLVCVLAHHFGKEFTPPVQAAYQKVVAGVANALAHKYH

B1: RNA aptamer A (ssRNA)
RNA: GGGAUAGGAUCCACAUCUACGUAUUACGGCAUUAUUAGGACCAAUGCUGAGUACGGCGCACAGCUUUUUUCACUGCAGACUUGACGAAGCUUAAAAAAAAAAAAAAAAAA
modifications: 2'-F at A and U
For B1, the Kd is 160 nM.
